Source: the DeepSol protein solubility set

Test: soluble on expression in E. coli; label from the status in PepcDB or PDB records

| Sequence | soluble on expression in E. coli |
| --- | --- |
| MGEEEESLAILRRHVMNELLDTERAYVEELLCVLEGYAAEMDNPLMAHLISTGLQNKKNILFGNMEEIYHFHNRIFLRELESCIDCPELVGRCFLERMEEFQIYEKYCQNKPRSESLWRQCSDCPFFQECQKKLDHKLSLDSYLLKPVQRITKYQLLLKEMLKYSKHCEGAEDLQEALSSILGILKAVNDSMHLIAITGYDGNLGDLGKLLMQGSFSVWTDHKKGHTKVKELARFKPMQRHLFLHEKAVLFCKKREENGEGYEKAPSYSYKQSLNMTAVGITENVKGDTKKFEIWYNAREEVYIIQAPTPEIKAAWVNAIRKVLTSQLQACREASQHRALEQSHSLEHHHHHH | soluble |
| MGEEILTERNQLSRQDASCFRSPRSPLGRTDDAFFELDDDDDLSSPSVPGSPVDPPSISVPLPPKSAPPCPTQPAPLTNGDLYPTILSNGTPIPNGRITPALSTVSVSLIHEARLQQSLSTPCNGSEEEMHNGQVRKESEYRRFKSEGSTAGASLPAAEKTHMDELSPVDQRSTSGTARFLIQQDSVVNPSTKMSNTEQVAMMHTLKTKLSKYQAMMDKAFEEIAKVEDANIIEGCTIVRKLMRKVWNTPKVSADLANALCDYLRDRDYFDKLIKMFISPNTAACDQVRMECGKVLEECTSSANLEYIVNKSYTKKIMIVAMKLNKTPDQQRLSLSLIGNLFKHSNAVSLSLIETDVIDHIILTFKRAPECPDILRHAALALANILLYTCFEGKKKIIQKKIPEWLFFLASQADDVTRYYACIAVCTIVSVKEFEPLVRKSDTMKLVEPFLQVHDPATFARDYHKYAQGNTKEWLERLLPMLQPSRRREARSVAAFHFTLEATIKKEQNKLDVFQEIGAIQALKEVASSPDEVAAKFASEALTVIGEEVPYKLAQQVPGWTCADVQYWVKKIGFEEYVEKFAKQMVDGDLLLQLTENDLKHDVGMISGLHRKRFLRELQTLKVAADYSSVDESNLDNFLMGLSPELSVYTYQMLTNGVNRSLLSSLTDEMMQNACGITNPIHRLKLTQAFETAKHPDDVEVAMLSKQIDVFISYRRSTGNQLASLIKVLLQLRGYRVFIDVDKLYAGKFDSSLLKNIQAAKHFILVLTPNSLDRLLNDDNCEDWVHKELKCAFEHQKNIIPIFDTAFEFPTKEDQIPNDIRMITKYNGVKWVHDYQDACMAKVVRFITGELNRTTPTTKEMPSISRKTTQQRWQTTNTVSRTGPSRSIGGPRMEPPTPTFFSVTPTGSQERATSTRRKIQPSASTTSDRN | not soluble |
| MGEETIAAIATGAGEGGIGIVRISGADALQVAERIFRPRRGRPLGCRRSHTVTYGWVVTPGGDRIDEALALVMRGPHSYTGEDVVELQCHGGQLAVRRVLEQALQAGARLAEPGEFTRRAFLNGRLDLSQAEAVVDLIRAKTDRAMAAAVAHLGGSLRQAVGRIRERLMEMMAHLEADIDFPELELEVQTREEVAAGCGWCLGEVERLLGGARTGRILREGLRAVLAGRPNVGKSSLLNRLVRENRAIVTPIPGTTRDVIAEWVELGGVPVQLFDTAGLRPTDDPVERIGVARTHEALAQAHLVLVVVDAAAGLGPEDREWISQLPQGAARVGVANKIDLNPAFELSALREALGGAPVVGVSAETGEGLDALEAEVARVAGAFDASEELLVNTRQAEAIRRARNHLRDAQATLESGLGDELVAIDLRAAWMALGEVTGETAGEELLDQIFSRFCIGK | soluble |
| MGERFYLYDDTVEAAVRFVSFVGERQRFDLALIETDRFYGKWLVLDLQSNRFAILGRDDLEEPGYIEHAYQLHEQDANDLRAFLEEYLS | not soluble |
| MGEVLHIEDALNEKGVYVSTTSGVSMYPMLRNRRDTIIVKPPTAPLKKYDVPLYRRGDDYVLHRIIGKDDRGYIICGDNCINKEYGITENQIIGVLVGFYRDGNEVNMEGVGYKLYSRAWVFLHPLICAFKKIKMKAGKVKRLWHSK | not soluble |
| MGFAPVTPAAVETYDPDVDHDDESNGLDGFRVRSKRSGKFSGGYSDSPREVGDGYGVRSRARSNMKMYGGFKSEFDSDHDSGSGFGLKRKYNGNPKVSADFDADSDDEIVLVPKATRLRTHGKPSSGDFSHGSGGGFPLKSFGDRNFASHGFKPKNFSKPEPNFSQDLDYDDEFDDDRAEREGFNPRIQSSRSSSRVNGYSRKDGSYPRNTGASNGYGSSSRFKHEQMNAAAEVESDPIDEVVSSVKMLTEMFVRVENSKMEMMREMEKSRMEMELKHCQMMLESQQQIIGAFAEALSEKKSTNARRPVS | not soluble |
| MGFFSGQFSNVVEWEEFREDMIFWKWHNREIKRGSKLIIRPGQDAIFLFNGRIEGIFKDEGDYDIESQIIPFLSTLQGFKFGFNSGMRAEVLFVNTKEFTAKWGTKSAINIPTPQLPGGIPIRANGTFTFKVNDYVKLIDRIAGVKDSFLVEDVRLRIMALLDQLMMKWIVQEGRDMFNLQSNSFAIADGLKTDLDMQIYDMGITVSQLTIMSFTYPEEIQQMIAKAASHTMIGDMGRYQQVSVLDGIAGGKGQGGSAAADMAGMAIGMQMANEMIKGVTSPQREQTQGRGSHAPQGGSEPGLIKPNFCPNCGQKTDGANFCSNCGQKLVLEHHHHHH | soluble |
| MGFFSRDIQTMEDLLLHGLRDIYYAEQQITKALPKMIEQATNRDLSQGLTSHLEETQKQIERLDQVFKKLGQKPSGVNCPAIDGLIKEADETAGEIADKTVLDAAIVANAQAVEHYEIARYGTLIAWAEELGHDDIVRFLTTNLNEEKAANTKLNTVALRKGVNRKAAS | soluble |
| MGFKCGIVGLPNVGKSTLFNALTKAGIEAANFPFCTIEPNTGVVPMPDPRLDQLAEIVKPQRTLPTTMEFVDIAGLVKGASKGEGLGNQFLTNIRETEAIGHVVRCFENDNIIHVSGKVNPADDIEVINTELALADLDTCERAIHRVQKKAKGGDKDAKAELAVLEKCLPQLENAGMLRALDLSAEEKAAIRYLSFLTLKPTMYIANVNEDGFENNPYLDQVREIAAKEGSVVVPVCAAVEADIAELDDEERDEFMQELGLEEPGLNRVIRAGYKLLNLQTYFTAGVKEVRAWTIPVGATAPQAAGKIHTDFEKGFIRAQTISFEDFITYKGEQGAKEAGKMRAEGKDYIVKDGDVMNFLFNV | soluble |
| MGFYQGPDNRKITGGLKGKHRDKRKYEIGNPPTFTTLSAEDIRIKDRTLGGNFKVRLKYTTTANVLDPATNTAKKVKILEILETPANKELARRGIIIRGAKIRTEAGLAVVTSRPGQDGVINAVLLKNESQRS | soluble |
| MGFYQGPDNRKITGGLKGKHRDKRKYEIGNPPTFTTLSAEDIRIKDRTLGGNFKVRLKYTTTANVLDPATNTAKKVKILEILETPANKELARRGIIIRGAKIRTEAGLAVVTSRPGQDGVINAVLLKNESQRSLEHHHHHH | not soluble |
| MGGFGVGKTTMVGSVSEIRPLTTEETMTQAGIGVDDNYGSASKTATTVAMDFGRISITDELVLYLFGTPGQERFWFLWNGLFEGALGAVVLVDTRRLEVSFDVMGRLEERGVPFVVAVNTFPDAPRYPVAELRTALDLPEEIPILDCDVRRRASSRDVLMTLMRLLHSLAMKGALTLEHHHHHH | not soluble |
| MGGIGRIGILGSGSWATALAKIILTSQPSINWFMRREEQAQGIKRTGRNPNYLRDAVFDPRKISFFTDSDLNSFFRASDVVVLVTPSPFIKSYLKRVRSSSMRDKLIINAIKGIVPDENVLVSEYLHDFCDVPNELIGVVSGPCHAEEVARERRSYLTVGCFDINKAKAMANVLRNDYVSCTTSQDVVGIEYASVLKNVYAIAAGICNGLQYGDNFQSVLMSNAIAEMNSFVNTVHLLEREITDSVYLGDLLVTAYSNYSRNRTFGNMIGKGYSVKSAQMEMEMIAEGYYGAKCVREVNKRYQVNMPIMNTVYEVLYEKRDAAEAITALTAHFK | not soluble |
| MGGLYVSNFYGIFYSSNSESSTTLVDFCKYNAEIVEQTIFLEFVEFSNESIIFLKNLYSKMVNNSNFNIKKKFFHRKNSVTVYSNFLNFSKNLVKKFGV | not soluble |
